Results published in PMC3614988.

Key:
[1] = molecular target: Rai14 (retinoic acid induced protein 14) (rat (endogenous in testis)) (UniProt Q5U312); assay: co-IP; testis lysates (800 µg protein) of rats 12 hr after a single dose of adjudin (50 mg/kg b.w., by gavage); anti-Rai14 IgG as precipitating antibody, blot with anti-actin antibody; compared with 0 hr
[2] = molecular target: Rai14 (retinoic acid induced protein 14) (rat (endogenous in testis)) (UniProt Q5U312); assay: co-IP; testis lysates (800 µg protein) of rats 48 hr after a single dose of adjudin (50 mg/kg b.w., by gavage); anti-Rai14 IgG as precipitating antibody, blot with anti-actin antibody; compared with 0 hr

Sequence of UniProt Q5U312 (Q5U312 whole entry): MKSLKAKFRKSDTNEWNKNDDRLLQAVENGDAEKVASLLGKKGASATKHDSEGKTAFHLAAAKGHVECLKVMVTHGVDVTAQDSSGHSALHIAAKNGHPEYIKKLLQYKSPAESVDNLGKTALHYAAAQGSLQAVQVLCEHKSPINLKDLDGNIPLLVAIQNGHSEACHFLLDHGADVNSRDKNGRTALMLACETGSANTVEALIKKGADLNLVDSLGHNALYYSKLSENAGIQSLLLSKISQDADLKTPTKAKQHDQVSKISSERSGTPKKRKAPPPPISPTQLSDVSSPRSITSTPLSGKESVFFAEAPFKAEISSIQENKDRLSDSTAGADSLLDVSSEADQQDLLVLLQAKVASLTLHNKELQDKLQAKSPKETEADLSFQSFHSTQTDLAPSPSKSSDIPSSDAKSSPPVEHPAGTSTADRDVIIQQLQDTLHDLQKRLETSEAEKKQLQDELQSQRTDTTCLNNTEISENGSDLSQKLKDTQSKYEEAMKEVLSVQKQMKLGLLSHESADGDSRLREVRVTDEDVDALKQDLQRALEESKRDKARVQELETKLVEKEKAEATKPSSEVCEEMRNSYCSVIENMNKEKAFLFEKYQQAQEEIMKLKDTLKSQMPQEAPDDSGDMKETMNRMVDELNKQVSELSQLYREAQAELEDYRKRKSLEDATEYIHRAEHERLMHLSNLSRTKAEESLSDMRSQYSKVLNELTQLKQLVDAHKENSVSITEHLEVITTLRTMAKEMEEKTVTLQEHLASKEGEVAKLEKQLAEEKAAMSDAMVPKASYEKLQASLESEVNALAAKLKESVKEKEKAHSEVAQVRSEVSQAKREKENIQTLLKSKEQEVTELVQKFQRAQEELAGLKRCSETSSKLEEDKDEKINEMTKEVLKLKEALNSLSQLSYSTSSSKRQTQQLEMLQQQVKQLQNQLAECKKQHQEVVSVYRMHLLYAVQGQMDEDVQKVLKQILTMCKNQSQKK

- percent reduction of the Rai14-actin co-IP against 0 hr [1]: 35%
- percent loss of the Rai14-actin co-IP against 0 hr [2]: 90%
Substance: actin (from UniProt P60711 1-375) (natural protein)
